Legend:
[1] = biological target: LFA-1 mutant K287C/K294C (αL K287C/K294C with β2) on 293T or K562 transfectants (human) (UniProt P05107); test: flow cytometry on transfectants
[2] = biological target: isolated K287C/K294C αL I-domain (V130-A338) expressed on K562 cells by the PDGF receptor transmembrane domain (human) (UniProt P20701); test: flow cytometry on K562 transfectants
[3] = biological target: LFA-1 mutant L289C/K294C (αL L289C/K294C with β2) on 293T or K562 transfectants (human) (UniProt P05107); test: flow cytometry, K562, normalized to TS2/4
[4] = biological target: LFA-1 mutant K287C/K294C (αL K287C/K294C with β2) on 293T or K562 transfectants (human) (UniProt P05107); test: flow cytometry, K562, normalized to TS2/4
[5] = biological target: LFA-1 mutant L289C/K294C (αL L289C/K294C with β2) on 293T or K562 transfectants (human) (UniProt P05107); test: flow cytometry, 293T, normalized to TS2/4
[6] = biological target: LFA-1 single cysteine substitution mutant K294C on 293T transfectants (human) (UniProt P05107); test: flow cytometry, 293T, normalized to TS2/4
[7] = biological target: LFA-1 mutant K287C/K294C (αL K287C/K294C with β2) on 293T or K562 transfectants (human) (UniProt P05107); test: flow cytometry, 293T, normalized to TS2/4
[8] = biological target: LFA-1 single cysteine substitution mutant L289C on 293T transfectants (human) (UniProt P05107); test: flow cytometry, 293T, normalized to TS2/4
[9] = biological target: LFA-1 single cysteine substitution mutant K287C on 293T transfectants (human) (UniProt P05107); test: flow cytometry, 293T, normalized to TS2/4
[10] = biological target: LFA-1 mutant K287C/K294C (αL K287C/K294C with β2) on 293T or K562 transfectants (human) (UniProt P05107); test: inhibition of adhesion of K562 transfectants to immobilized ICAM-1
[11] = biological target: wild-type LFA-1 (αL/β2 complex) expressed on 293T or K562 transfectants (human) (UniProt P05107); test: inhibition of adhesion of K562 transfectants (+CBRLFA-1/2) to immobilized ICAM-1
[12] = biological target: recombinant ICAM-1 Fc chimera immobilized on the BIAcore sensor chip (UniProt P05362); test: BIAcore; fit of dissociation phase, 1:1 model; Table 6 kinetic study; Koff from a 1:1 fit of the dissociation phase
Sequence of recombinant ICAM-1 Fc chimera immobilized on the BIAcore sensor chip (P05362 28-480 limits assumed, stated change not applied): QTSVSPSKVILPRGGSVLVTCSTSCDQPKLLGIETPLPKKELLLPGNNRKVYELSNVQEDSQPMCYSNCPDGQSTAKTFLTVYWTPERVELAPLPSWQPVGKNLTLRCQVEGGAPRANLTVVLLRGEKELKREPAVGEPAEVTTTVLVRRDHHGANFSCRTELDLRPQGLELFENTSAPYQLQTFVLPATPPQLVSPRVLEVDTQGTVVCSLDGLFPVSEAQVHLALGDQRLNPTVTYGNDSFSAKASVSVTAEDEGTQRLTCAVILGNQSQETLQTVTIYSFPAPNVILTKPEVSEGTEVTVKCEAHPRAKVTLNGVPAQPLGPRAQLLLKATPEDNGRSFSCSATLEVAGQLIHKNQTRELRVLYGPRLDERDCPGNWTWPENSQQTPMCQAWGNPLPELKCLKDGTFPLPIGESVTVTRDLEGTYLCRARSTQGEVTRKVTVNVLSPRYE

[13] = biological target: recombinant ICAM-1 Fc chimera immobilized on the BIAcore sensor chip (UniProt P05362); test: BIAcore; Kon calculated by Koff/KD; Table 6 kinetic study; Kon calculated as Koff/KD from steady-state data, very weak binding
[14] = biological target: recombinant ICAM-1 Fc chimera immobilized on the BIAcore sensor chip (UniProt P05362); test: BIAcore; Scatchard plot at steady state; Table 6 kinetic study; KD from Scatchard plots at steady state, millimolar affinity

Sequence of isolated K287C/K294C αL I-domain (V130-A338) expressed on K562 cells by the PDGF receptor transmembrane domain (human) (P20701 155-363 K312C/K319C limits assumed): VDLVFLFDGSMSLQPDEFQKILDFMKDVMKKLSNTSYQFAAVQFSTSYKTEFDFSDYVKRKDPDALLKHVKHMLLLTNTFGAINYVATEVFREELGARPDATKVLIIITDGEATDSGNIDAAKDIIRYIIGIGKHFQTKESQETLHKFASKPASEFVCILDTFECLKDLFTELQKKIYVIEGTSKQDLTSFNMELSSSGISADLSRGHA

% of wild-type binding (% of wild-type) [1]	% of binding to the wild-type I-domain (% of wild-type I-domain) [2]	% wild-type binding (% of wild-type) [3]	% wild-type binding (% of wild-type) [4]	% wild-type binding (% of wild-type) [5]	% wild-type binding (% of wild-type) [6]	% wild-type binding (% of wild-type) [7]	% wild-type binding (% of wild-type) [8]	% wild-type binding (% of wild-type) [9]	% inhibition [10] [%]	% inhibition [11] [%]	koff [12] [s⁻¹]	kon [13] [M⁻¹ s⁻¹]	Kd [14] [µM]	Substance
40 to 50	80	118	55.5	95.9	89.4	43.6	93.3	86.1	–	–	–	–	–	monoclonal antibody CBRLFA-1/1
–	–	111	101	95.1	–	103	–	–	0.08	98.4	–	–	–	monoclonal antibody YFC51
–	–	–	–	–	–	–	–	–	–	–	3	2220	1350	recombinant soluble wild-type αL I-domain (G128 to Y307), made in E. coli (from UniProt P20701 153-332) (receptor)

From patent US7674604
